Assay results published in patent publication US20230365685A1 (SUZHOU NEOLOGICS BIOSCIENCE, published 2023).
Residue numbers refer to the chain shown, from its start.

B1: CH 5# (antibody, V domains shown)
VH: QVQLQQSGPDLVKPGASVKISCKASGYSFTGYYMHWVKQSHGKSLEWIGRVNPNNGGTDYDQKFKGKAILSVDKSSNTAYMELRSLTSEDSAVYYCAREGEYFDYYAMDYWGQGTTVTVSS
VL: DIELTQSPASLAVSLGQRATISCRASESVEYYGTSLMQWYQQKPGQPPKLLIYAASNVESGVPARFSGSVSGTDFSLNIHPVEEDDIAMYFCQQSRKVPITFGSGTKLEIK
B2: CH 8# (antibody, V domains shown)
VH: B1 VH with Q3K, N52Y, D59S, D61N, S71T, N77S, Y106F
VL: B1 VL with P63A, V70G, Q94P, I100Y, S104G
B3: 84G10 (antibody, V domains shown)
VH: QVQLQQSGGELVRPGSSVKISCKASGYAFSSYWMNWVKQRPGQGLEWIGQIYPGEGDTNYNGKFKGKATLTADKSSSTAYMQLSSLTSEDSAVYFCARGHFYGSSYDWFAYWGQGTLVTVSA
VL: DIQMTQSPASLSASVGETVTITCRASENINSYLAWYQQKQGKSPQLLVYHAKTLASGVPSRFSGSGSGTQFSLKINSLQPEDFGSYYCQHHYGTPLTFGAGARLELK
B4: 38F8 (antibody, V domains shown)
VH: EVQLQQLGAELVKPGASVKISCKASGYIFTDYSMDWVKQSHGESLEWIGDINPNYDSLSYNQKFKGKATLTVDKSSSTAYMELRSLTSEDTAVYYCARRGYGKDYFDFWGQGTSLTVSS
VL: TWGMTQTTSSLSASLGDRVTISCRASQDISNYLNWYQQKPDGTVKLLIYHTSRLYSGVPSRFTGSGSGTDYSLTISNLEQEDIATYFCQQGNTLPLTFGAGTKLELK
B5: CH 9# (antibody, V domains shown)
VH: QVKLQESGPGLVAPSQSLSITCTVSGFSLTGYGVHWVRQPPGKGLEWLGMIWGDGSTDYNSALKSRLSISKDNSKSQVFLKMNSLQTDDTARYYCARDRGNHWYFDVWGQGTTVTVSS
VL: DIELTQSPAILSASPGEKVTMTCRASSSVSYMHWYQQKPGSSPKPWIYATSNLASGVPARFSGSGSGTSYSLTISRVEAEDAATYYCQQWSSNPLTFGAGTKLEIK
B6: 36A2 (antibody, V domains shown)
VH: DVQLVESGGGLVQPGGSRKLSCAASGFTFSSFEMHWVRQAPETGLEWVAYISGGSTTIYYADTMKGRFTISRDNPENTLFLQMTSLRSEDTAIYYCVRSYYGLLDYWGQGTTLTVSS
VL: NIMMTQSPSSLSVSTGEKVTMSCKSSQSVLHSSNQKNFLAWFQQKPGQSPKLLIYWASTRESGVPDRFTGSGSGTDFTLTINNVQPEDLAVYYCHQYLSSLTFGAGTKLELK
notes: also called 36A12
B7: 38A8 (antibody, V domains shown)
VH: QVQLQQPGAELVKPGASVKMSCKASGYTFTTYNMHWVKQTPGQGLEWIGGIYPGNGDTSYNQKFKGKATLTADKSSSTAYMQLSSLTSEDSAVYYCARSYYTFDAMDCWGQGTSVTVSS
VL: DIVMSQSPSSLAVSAGEKVTMSCKSSQSLLNSRTRKNYLAWYQQKPGRSPKLLIYWASTRESGVPDRFTGGGSGTDFTLTISSVQAEDLAVYYCKQSYSLLTFGAGTKLELK
B8: 36B11 (antibody, V domains shown)
VH: QVTLKESGPGILQPSQTLSLTCSFSGFSLSTSGMGVGWIRQPSGKGLEWLAHIWWDDVKRYNPALKSRLTISKDTSSSQVFLKIASVDTADTATYYCVRTFITTTTMDYWGQGTSVTVSS
VL: QIVLTQSPTIMSASPGEKVTLTCSASSGISSSYLYWYQQKPGSSPKLWIYGTSNLASGVPARFSGSGSGTSYSLTISSLEAEDAASYFCHQWSNYPYTFGGGTKLEIK

Molecular target: T1, human TIM-3 recombinant protein (TIM-3-his) (human, UniProt Q8TDQ0 22-202)
T1 construct: also called TIM-3 protein; not shown: His tag
Test: biosensor (HFC sensor, Probe Life): antibody captured, TIM-3-his in solution, 1:1 fit;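 also: antigen applied as a twofold dilution series, association and dissociation phases recorded, KD obtained as koff divided by kon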
Procedure: Anti-TIM-3 antibodies were coupled to the surface of the HFC sensor (Probe Life), and human TIM-3 recombinant protein, as the mobile phase, was 1:2 serially diluted with a maximum concentration of 50 nM. The association and dissociation between TIM-3 protein and the antibody on the surface of the sensor were measured. Specifically, the HFC sensor was prewetted in SD buffer (PBS containing 0.02% Tween-20 and 0.2% BSA) for 10 minutes, and then balanced in a sample buffer containing antibodies for 1 minute, allowing antibodies to be coupled to the sensor surface. The antibody-coupled HFC sensor was balanced in the SD buffer solution for 1 minute, and then incubated in the buffer solution containing different concentrations of TIM-3-his for 120s to measure the association of TIM-3-his protein to captured antibody. Finally, the sensor combining the antigen and antibody was placed in SD buffer and waited for 300s to measure dissociation of TIM-3-his protein from the antibodies captured on sensor. Data was fitted using a 1:1 model, and the association rate (kₒₙ) and the dissociation rate (koff) were calculated. The equilibrium dissociation constant (KD) was calculated by the ratio koff/Kon.

Row | Binder | Kd | koff | kon
1 | B1 | 188 nM | 0.00153 s⁻¹ | 8130 M⁻¹ s⁻¹
2 | B2 | 512 nM | 0.00253 s⁻¹ | 4930 M⁻¹ s⁻¹
3 | B3 | 2.84 nM | 0.00197 s⁻¹ | 692000 M⁻¹ s⁻¹
4 | B4 | 1.74 nM | 0.00255 s⁻¹ | 1.47e+06 M⁻¹ s⁻¹
5 | B5 | 553 nM | 0.00287 s⁻¹ | 5190 M⁻¹ s⁻¹
6 | B6 | 1.01 nM | 0.000559 s⁻¹ | 553000 M⁻¹ s⁻¹
7 | B7 | 1.36 nM | 0.00126 s⁻¹ | 928000 M⁻¹ s⁻¹
8 | B8 | 0.432 nM | 0.000383 s⁻¹ | 885000 M⁻¹ s⁻¹
